Assay results taken from article PMC12282641.

Experiments:
[1] = GCaMP6s imaging, 100 AP 10 Hz; details: glycan lost; control: WT-HK1-BFP
[2] = multi-electrode array, rat cortical neurons; details: glycan lost; control: WT-HK1
[3] = HYlight FBP sensor, axons, 100 AP 10 Hz; details: glycan lost; control: WT-HK1-FLAG
[4] = anti-HK1 blot of HEK293T lysates; details: glycan lost; control: WT-HK1
[5] = iATPSnFR1.0 imaging, hippocampal neurons, 100 AP 10 Hz; details: glycan lost; control: WT-HK1-BFP
[6] = fractionation blots for Aldo A, PGK, PKM2, HEK293T; details: glycan lost; control: WT-HK1 cells, response to OGT + Thiamet-G

B1: Hexokinase 1 (HK1): T259A (protein)
parent chain: MIAAQLLAYYFTELKDDQVKKIDKYLYAMRLSDETLIDIMTRFRKEMKNGLSRDFNPTATVKMLPTFVRSIPDGSEKGDFIALDLGGSSFRILRVQVNHEKNQNVHMESEVYDTPENIVHGSGSQLFDHVAECLGDFMEKRKIKDKKLPVGFTFSFPCQQSKIDEAILITWTKRFKASGVEGADVVKLLNKAIKKRGDYDANIVAVVNDTVGTMMTCGYDDQHCEVGLIIGTGTNACYMEELRHIDLVEGDEGRMCINTEWGAFGDDGSLEDIRTEFDREIDRGSLNPGKQLFEKMVSGMYLGELVRLILVKMAKEGLLFEGRITPELLTRGKFNTSDVSAIEKNKEGLHNAKEILTRLGVEPSDDDCVSVQHVCTIVSFRSANLVAATLGAILNRLRDNKGTPRLRTTVGVDGSLYKTHPQYSRRFHKTLRRLVPDSDVRFLLSESGSGKGAAMVTAVAYRLAEQHRQIEETLAHFHLTKDMLLEVKKRMRAEMELGLRKQTHNNAVVKMLPSFVRRTPDGTENGDFLALDLGGTNFRVLLVKIRSGKKRTVEMHNKIYAIPIEIMQGTGEELFDHIVSCISDFLDYMGIKGPRMPLGFTFSFPCQQTSLDAGILITWTKGFKATDCVGHDVVTLLRDAIKRREEFDLDVVAVVNDTVGTMMTCAYEEPTCEVGLIVGTGSNACYMEEMKNVEMVEGDQGQMCINMEWGAFGDNGCLDDIRTHYDRLVDEYSLNAGKQRYEKMISGMYLGEIVRNILIDFTKKGFLFRGQISETLKTRGIFETKFLSQIESDRLALLQVRAILQQLGLNSTCDDSILVKTVCGVVSRRAAQLCGAGMAAVVDKIRENRGLDRLNVTVGVDGTLYKLHPHFSRIMHQTVKELSPKCNVSFLLSEDGSGKGAALITAVGVRLRTEASS
[1]
  other: presynaptic calcium dynamics: no change
[2]
  other: neuronal network activity: decreases
[3]
  other: activity-evoked glycolysis (FBP level): abolishes
[4]
  expression_or_secretion: no change
[5]
  other: axonal ATP recovery after stimulation: abolishes
[6]
  other: glycolytic enzyme recruitment to mitochondria: abolishes
